Results from patent publication US20250122303A1, “TREATMENT AND PREVENTION OF CANCER USING HER3 ANTIGEN-BINDING MOLECULES” (Hummingbird Bioscience Pte. Ltd., priority 2021, published 2025).
Entries after “also recorded” stand apart in the source; their conditions may differ.

How the values were obtained:
His-tagged human HER3 = His-tagged human HER3 (Homo sapiens, UniProt P21860); assay: BLI competition between anti-HER3 antibodies for binding to HER3
Procedure: Bio-Layer Interferometry (BLI) experiments were performed using the Octet QK384 system (ForteBio). anti-Penta-HIS (HIS1K) coated biosensor tips (ForteBio, USA) were used to capture His-tagged human HER3 (75 nM; 300 s). Binding by saturating antibody ([…]; 600 s) was detected, followed by a dissociation step (120s), followed by detection of binding with competing antibody (300 nM; 300 s), followed by a dissociation step (120s).
BLI experiments were performed as described in Example 3.5 with one alteration: 400 nM of competing antibodies were used. The variable regions of M-05-74 and M-08-11 antibodies were cloned in the PDZ vector having human IgG1 and IgKappa Fc backbone.

N87 cells = assay: CCK-8 proliferation assay, N87; type: cell-based, human; details: 5 days
Procedure: Briefly, N87 and FaDu cells were treated with serially diluted concentrations of anti-HER3 antibody 10D1, starting from 100 μg/ml with a 9-point half log dilution. Cell proliferation was measuring using the CCK-8 proliferation assay (Dojindo, Japan) after a period of 5 days, in accordance with the manufacturer's instructions. Briefly 1× CCK-8 solution was added to each well followed by incubation for 2 h at 37° C. The OD was then measured at 450 nm.

[1] = molecular target: heterodimerisation of HER3 and HER2 (Homo sapiens, UniProt P21860); assay: ELISA inhibition of HER2-HER3 interaction; type: biochemical; details: Example 4.1: His-tagged HER2 coated, biotinylated HER3
Procedure: The anti-HER3 antibodies were analysed for their ability to inhibit heterodimerisation of HER3 and HER2. Briefly, 96-well plates (Nunc, Denmark) were coated with 0.1 μg/ml His-tagged HER2 protein in PBS for 16 h at 4° C. After blocking for 1 h with 1% BSA in PBS at room temperature, recombinant biotinylated human HER3 protein was added in the presence of different concentrations of anti-HER3 antibody clone 10D1, and pates were incubated for 1 h at room temperature. Plates were subsequently washed three times, and then incubated with HRP-conjugated secondary antibody for 1 h at room temperature. After washing, plates were developed with colorimetric detection substrate 3,3′,5,5′-tetramethylbenzidine (Turbo-TMB; Pierce, USA) for 10 min. The reaction was stopped with 2M H2SO4, and OD was measured at 450 nm.
Plate-based ELISA dimerisation assays were carried out according to standard protocols. Plates were coated with 1 μg/ml HER2-Fc protein. […] Plates were then washed and incubated for 1 hour with secondary anti-HIS HRP antibody. Plates were washed, treated with TMB for 10 mins and the reaction was stopped using 2M H2SO4 stop solution. The absorbance was read at 450 nm.

[2] = test system: OvCAR8 cell-line derived mouse model of ovarian carcinoma; assay: OvCAR8 cell-line derived xenograft model; type: in vivo; details: OvCAR8, IP biweekly 500 μg, 9 doses
Procedure: (§1) Tumor volumes were measured 3 times a week using a digital caliper and calculated using the formula [L ×W2/2]. Study End point was considered to have been reaches once the tumors of the control arm measured >1.5 cm in length.
The model was established by subcutaneous injection of 1×10^6 OvCAR8 cells into the right flanks of female NCr nude mice (n=6 mice per treatment group).
10D1 was administered IP, biweekly at 500 μg per dose (for a total of 9 doses); a control treatment group received an equal volume of PBS.
Tumour cells were inserted with matrigel subcutaneously into the right flanks of female NCr nude mice.
(§2) Murine tumour efficacy studies were performed using cell-line derived xenograft (CDX) models in mice. Female NCr nude mice (5-8 weeks old, 21-29 g) were subcutaneously implanted with N87, A549, FaDu, OvCAR8 cells. Treatment was initiated when tumours reached approximately 100 to 200 mm^3. Vehicle (PBS) or therapeutic antibodies (25 mg/kg) were administered intraperitoneally (IP) at indicated time points (weekly FaDu and OvCAR8, twice weekly N87 and A549). Tumours were measured twice per week using a calliper and tumour volume (mm^3) was calculated. Each data point represents the mean tumour volume ±SEM (n=8 mice).

human EGFR = molecular target: T1, human EGFR (Homo sapiens, UniProt P00533); assay: ELISA specificity, human EGFR; type: binding; details: antibody up to 10 μg/ml
T1 construct: purchased Sino Biological Inc., China
Procedure: ELISAs were used to determine the binding specificity of the antibodies. The antibodies were analysed for binding to human HER3 polypeptide, as well as respective mouse, rat and monkey homologues of HER3 (Sino Biological Inc., China). The antibodies were also analysed for their ability to bind to human EGFR and human HER2 (Sino Biological Inc., China).
ELISAs were carried out according to standard protocols. Briefly, 96-well plates (Nunc, Denmark) were coated with 0.1 μg/ml of target polypeptide in phosphate-buffered saline (PBS) for 16 h at 4° C. After blocking for 1 h with 1% BSA in Tris buffer saline (TBS) at room temperature, the anti-HER3 antibody was serially diluted with the highest concentration being 10 μg/ml, and added to the plate. Post 1 h incubation at room temperature, plates were washed three times with TBS containing 0.05% Tween 20 (TBS-T) and were then incubated with a HRP-conjugated anti-His antibody (Life Technologies, Inc., USA) for 1 h at room temperature. […] The reaction was stopped with 2M H2SO4, and OD was measured at 450 nm.
The antibodies were analysed for their ability to bind to human HER3 polypeptide as well as human HER1 (EGFR) and human HER2 (Sino Biological Inc., China). […]
ELISAs were carried out according to standard protocols. […] The reaction was stopped with 2M H2SO4, and OD was measured at 450 nm.

[3] = test system: N87 cell-line derived mouse gastric carcinoma model; assay: N87 cell-line derived xenograft model; type: in vivo; details: N87, IP biweekly 500 μg, 10 doses
Procedure: as §1
The model was established by subcutaneous injection of 1×10^6 N87 cells into the right flank (n=6 mice per treatment group).
10D1 was administered IP, biweekly at 500 μg per dose (for a total of 10 doses); a control treatment group received an equal volume of PBS.
Tumour cells are inserted with matrigel subcutaneously into the right flanks of female NCr nude mice.
as §2

[4] = Pharmacokinetic analysis in NCr nude mice; details: 500 μg
Procedure: Female NCr nude mice approximately 6-8 weeks old were housed under specific pathogen-free conditions and treated in compliance with the Institutional Animal Care and Use Committee (IACUC) guidelines. 500 μg anti-HER3 antibody was administered and blood was obtained from 3 mice by cardiac puncture at baseline (−2 hr), 0.5 hr, 6 hr, 24 hr, 96 hr, 168 hr and 336 hr after administration. Antibody in the serum was quantified by ELISA.
The parameters for the pharmacokinetic analysis in rats and mice were derived from a non-compartmental model: maximum concentration (Cmax), AUC (0-336 hr), AUC (0-infinity), Half-life (t1/2), Clearance (CL), Volume of distribution at steady state (Vd).
Antibody in the serum was quantified by ELISA.
A single dose PK study was performed in NCr Nude mice (25 mg/kg HMBD-001, IV). A single dose PK study including a range of dose levels (2, 5, 10 and 25 mg/kg HMBD-001, IP) was conducted in A549 tumour bearing mice.

B1: 10D1: anti-HER3 antibody clone, VH SEQ ID NO:24, VL SEQ ID NO:74; [1] of Example 2.2 (antibody, V domains shown)
VH: DVQLQESGPDLVKPSQSLSLTCTVTGYSITSGYSWHWIRQFPGNKLEWMGSIHYSGGTNYNPSLKSRISITRDTSKNQFFLQLNSVTTEDTATYFCARMTTAPRYPFDYWGQGTTLTVSS
VL: DIVMTQSQKFMSTSVGDRVSVTCKASQIVGSNVAWYQQKPGQSPKPLIYSASYRYSGVPDRFTASGSGTDFTLTITNVQSEDLAEYFCQQYSSHPLTFGAGTKLELK
With B1 the “competition with MM-121 and/or LJM-716 for binding to HER3” value (His-tagged human HER3) was “not to compete; also recorded: distinct and topologically distant epitope”, the cell proliferation (N87 cells) was “dose-dependent inhibition of cell proliferation” and the “inhibition of interaction between HER2 and HER3” value [1] was “inhibit interaction between HER2 and HER3 in a dose-dependent fashion”. The “inhibition of tumor growth” value [2] was roughly 74%, the “binding to human EGFR (HER1)” value (human EGFR) was “not to bind” and the “inhibition of tumor growth” value [3] was roughly 76%. For the same molecule, the half-life [4] was 16.3 days.
